Assay results taken from US20060287501A1 (Pieris, published 2006).
Substitutions are numbered along the chain they refer to. Names and notes keep the numbering of the source.

T1: recombinant Nogo-A fragment NI-Fr2 (rat, UniProt Q9JK11 233-941, labelled with digoxigenin (molar ratio 5:1) in the colony screening assay)
T1 construct: Truncated rat Nogo-A with C-terminal Strep-tag, made in the E. coli periplasm; also called MI-Fr2; wild-type NI-Fr2
T1 sequence: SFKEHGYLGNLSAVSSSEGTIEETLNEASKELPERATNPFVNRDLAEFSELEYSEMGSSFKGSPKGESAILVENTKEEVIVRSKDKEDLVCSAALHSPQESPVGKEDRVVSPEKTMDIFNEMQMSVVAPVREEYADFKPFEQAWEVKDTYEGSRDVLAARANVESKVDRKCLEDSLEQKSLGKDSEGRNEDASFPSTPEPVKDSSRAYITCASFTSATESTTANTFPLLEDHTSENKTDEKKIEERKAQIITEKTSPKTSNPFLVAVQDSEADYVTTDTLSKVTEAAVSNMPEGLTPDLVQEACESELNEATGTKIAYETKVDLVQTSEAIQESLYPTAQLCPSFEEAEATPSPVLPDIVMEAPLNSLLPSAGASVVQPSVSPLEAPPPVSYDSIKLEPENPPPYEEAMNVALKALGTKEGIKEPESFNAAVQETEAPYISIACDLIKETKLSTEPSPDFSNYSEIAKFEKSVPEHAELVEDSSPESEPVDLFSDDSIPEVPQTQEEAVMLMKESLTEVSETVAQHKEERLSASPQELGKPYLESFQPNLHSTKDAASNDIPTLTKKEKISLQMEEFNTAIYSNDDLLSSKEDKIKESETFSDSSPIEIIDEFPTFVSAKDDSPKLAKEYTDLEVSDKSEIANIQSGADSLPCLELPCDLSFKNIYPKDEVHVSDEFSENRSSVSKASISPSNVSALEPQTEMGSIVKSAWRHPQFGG

T2: mutant of NI-Fr2 devoid of Cys^574 and Cys^676 (rat, UniProt Q9JK11 233-940, labelled with digoxigenin in the colony screening assay)
T2 sequence: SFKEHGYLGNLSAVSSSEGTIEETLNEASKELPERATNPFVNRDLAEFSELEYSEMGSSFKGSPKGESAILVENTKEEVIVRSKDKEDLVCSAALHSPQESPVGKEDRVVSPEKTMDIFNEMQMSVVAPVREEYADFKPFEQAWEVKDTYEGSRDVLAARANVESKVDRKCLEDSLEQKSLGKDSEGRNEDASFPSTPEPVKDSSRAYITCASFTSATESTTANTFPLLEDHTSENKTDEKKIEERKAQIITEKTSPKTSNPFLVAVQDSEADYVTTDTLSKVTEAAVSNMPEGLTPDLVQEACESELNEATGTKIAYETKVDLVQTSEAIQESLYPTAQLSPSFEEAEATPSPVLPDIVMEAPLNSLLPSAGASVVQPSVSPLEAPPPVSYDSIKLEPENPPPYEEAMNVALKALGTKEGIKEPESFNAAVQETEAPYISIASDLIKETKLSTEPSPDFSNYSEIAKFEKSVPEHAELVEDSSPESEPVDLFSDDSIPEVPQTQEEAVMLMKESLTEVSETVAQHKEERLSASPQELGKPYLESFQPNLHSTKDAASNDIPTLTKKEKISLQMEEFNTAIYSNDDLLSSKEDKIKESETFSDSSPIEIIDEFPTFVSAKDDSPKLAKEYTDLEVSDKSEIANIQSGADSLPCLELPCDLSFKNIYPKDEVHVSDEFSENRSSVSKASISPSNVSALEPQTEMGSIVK

B1: I.2.6 Fab fragment with Cys L96 replaced by Ala (Fab, V domains shown)
VH: EVKLHESGPGLVRPGTSVKISCKASGYTFTNYWLGWVKQRPGHGLEWIGDIYPGGGYTNYNEKFKGKATLTADTSSSTAYMQLSSLTSEDSAVYFCARFYYGSSYWYFDVWGQGTTVTVSS
VL: DIELTQSPAIMAASVGETVTITCGASENIYGALNWYQRKQGKSPQLLIYGATNLADGMSSRFSGSGSGRQYSLKISSLHPDDVATYYCQNVLRVPATFGAGTKLEIK
notes: Chimeric Fab, human IgG1/kappa constant domains
B2: I.2.6 Fab fragment with Cys L96 replaced by Ile (Fab, V domains shown)
VH: B1 VH
VL: B1 VL with A96I
notes: as for B1
B3: I.2.6 Fab fragment with Cys L96 replaced by Met (Fab, V domains shown)
VH: B1 VH
VL: B1 VL with A96M
notes: as for B1
B4: I.2.6 Fab fragment with Cys L96 replaced by Leu (Fab, V domains shown)
VH: B1 VH
VL: B1 VL with A96L
notes: as for B1
B5: I.1.6 Fab fragment (IN-1 mutant) (Fab, V domains shown)
VH: B1 VH
VL: B1 VL with R93N, V94L, A96C
notes: as for B1
B6: I.2.4 Fab fragment (IN-1 mutant) (Fab, V domains shown)
VH: B1 VH
VL: B1 VL with R93G, V94T, A96F
notes: as for B1
B7: I.4.4 Fab fragment (IN-1 mutant) (Fab, V domains shown)
VH: B1 VH
VL: B1 VL with R93D, V94R, A96L
notes: as for B1
B8: I.1.11 Fab fragment (IN-1 mutant) (Fab, V domains shown)
VH: B1 VH
VL: B1 VL with R93Y, V94T, A96C
notes: as for B1
B9: I.2.5 Fab fragment (IN-1 mutant) (Fab, V domains shown)
VH: B1 VH
VL: B1 VL with R93P, V94C, A96V
notes: as for B1
B10: I.2.6(L96V) Fab fragment (Fab, V domains shown)
VH: B1 VH
VL: B1 VL with A96V
notes: Chimeric Fab, human IgG1/kappa constant domains; also called I.2.6(^L96Val) Fab fragment; replacement Cys^L96->Val
B11: II.1.1 Fab fragment (Fab, V domains shown)
VH: B1 VH
VL: B1 VL with V91R, L92K, A96V
notes: as for B1
B12: II.1.3 Fab fragment (Fab, V domains shown)
VH: B1 VH
VL: B1 VL with V91M, L92K, A96V
notes: as for B1
B13: II.1.7 Fab fragment (Fab, V domains shown)
VH: B1 VH
VL: B1 VL with V91L, L92K, A96V
notes: as for B1

molecular target: T1, recombinant Nogo-A fragment NI-Fr2; experiment: ELISA; NI-Fr2 coated
Procedure: (§1) ELISA was carried out in a 96 well microtitre plate (Becton Dickinson, Heidelberg, Germany) at ambient temperature with incubation steps of 1 h unless otherwise stated. Three washing steps with PBS/T were used after each incubation, and residual liquid was removed thoroughly. The wells were coated for 4 h with 50 μl of a solution of MI-Fr2 at concentrations between 180 and 200 μg/ml in PBS buffer and then blocked with 200 μl 3% (w/v) BSA, 0.5% (v/v) Tween 20 in PBS. After washing, 50 μl of the purified recombinant Fab fragment was applied at a dilution series in PBS/T. The wells were then incubated with 50 μl anti-human Cκ antibody conjugated with alkaline phosphatase (Sigma), diluted 1:1000 in PBS/T. Signals were finally developed in the presence of p-nitrophenyl phosphate (Voss and Skerra, (1997) Protein Eng., 10, 975-982). Enzymatic activity was measured at 25° C. as the change in absorbance at 405 nm per min with a SpectraMAX 250 instrument (Molecular Devices, Sunnyvale, Calif.). The data were corrected for background values determined in wells that were merely coated with BSA and fitted by non-linear least squares regression as described by Voss and Skerra, supra
Unfortunately, the I.2.6 mutant of the IN-1 Fab fragment was produced as a soluble protein in E. coli at a much lower level, with a relative yield of 5% after purification (0.04 mg L⁻¹ OD⁻¹ vs. 0.8 mg L⁻¹ OD⁻¹ for the wild-type IN-1 Fab fragment). […] Following earlier substitution experiments concerning position L96 (cf. above) attempts were made to replace the Cys residue in the I.2.6 mutant by small apolar side chains such as those of Ala, Val, Met, Leu, and Ile. The substitutions were introduced by site-directed mutagenesis and all corresponding recombinant Fab fragments were produced and purified as before, resulting in yields that were similar again to the wild type IN-1 Fab fragment.

binding result	Binder
no binding	B1
no binding	B2
no binding	B3
no binding	B4

molecular target: T1, recombinant Nogo-A fragment NI-Fr2; experiment: filter-sandwich colony screening assay; Fab-ABD (pASK106) captured on HSA membrane, digoxigenin-labelled NI-Fr2
Procedure: The mutagenized gene fragment was recloned on the expression vector pASK106-IN1 (encoding a Fab fragment fused with an albumin-binding domain to the C-terminus of its light chain; König and Skerra, supra). E. coli JM83 was transformed with the ligation mixture and transformed cells harboring the pASK106 vector were plated on a hydrophilic membrane (GVWP, 0.22 μm; Millipore, Bedford, Mass.), placed on a petri dish with LB/Amp agar, such that approximately 500 colonies were obtained, and incubated at 37° C. for 8 to 9 h. In the meantime a hydrophobic membrane (Immobilon-P, 0.45 μm; Millipore) was coated with 10 mg/ml human serum albumin (HSA; Sigma, Deisenhofen, Germany) in PBS for four hours and blocked with 3% (w/v) BSA (Roth, Karlsruhe, Germany), 0.5% (v/v) Tween 20 in PBS. The membrane was washed twice with PBS, soaked in LB/Amp containing […], and placed on an LB/Amp agar plate supplemented with […]. The first membrane, carrying tiny colonies of the transformed cells, was then placed onto the second (hydrophobic) membrane. The filter sandwich was incubated for 16 h at 22° C. During this period the mutated IN-1 Fab fragments became secreted—and partially released from the colonies by leakage from the bacterial periplasm—and finally immobilized on the lower membrane via complex formation between HSA and ABD.
(§2) The first membrane with the still viable colonies was transferred to a fresh LB/Amp agar plate and stored at 4° C. The second membrane was washed three times in PBS containing 0.1% (v/v) Tween 20 (PBS/T) and the immobilized Fab fragments, each in a spot 30 corresponding to the position of the original colony, were probed for antigen binding. To this end recombinant Nogo-A fragment NI-FR2 was labeled at a molar ratio of 5:1 with digoxigenin-3-O-methylcarbonyl-e-aminocaproic acid N-hydroxy-succinimide ester (Roche Diagnostics, Mannheim, Germany) and applied to the membrane for one hour at a concentration of 30 or 50 μg/ml in PBS/T. After washing three times with PBS/T the membrane was incubated for one hour with 0.75 u/ml anti-digoxigenin Fab fragment conjugated with alkaline phosphatase (Roche Diagnostics) in 10 ml PBS/T. The membrane was finally washed twice with PBS/T and twice with PBS and the signals were developed using standard chromogenic substrates as described (Schlehuber et al., supra).

binding result	Binder
binds	B5
binds	B6
binds	B7
binds	B8
binds	B9

molecular target: T1, recombinant Nogo-A fragment NI-Fr2; experiment: ELISA, wells coated with NI-Fr2, bound Fab detected with anti-human Ckappa antibody-alkaline phosphatase, delta A405/delta t
Procedure: Antigen-binding activity of the mutant Fab fragments was subsequently tested by ELISA using the recombinant NI-Fr2 for coating of the microtitre plate wells (FIG. 2).
as §1

binding result	Binder
binds	B10

molecular target: T2, mutant of NI-Fr2 devoid of Cys^574 and …; experiment: filter-sandwich colony screening assay; Fab-ABD (pASK106) captured on HSA membrane, labelled NI-Fr2 mutant (no Cys574, Cys676) at 30 µg/ml
Procedure: The first membrane, carrying tiny colonies of the transformed cells, was then placed onto the second (hydrophobic) membrane. The filter sandwich was incubated for 16 h at 22° C. During this period the mutated IN-1 Fab fragments became secreted—and partially released from the colonies by leakage from the bacterial periplasm—and finally immobilized on the lower membrane via complex formation between HSA and ABD.
as §2, with “supra). Colonies corresponding to signals with an intensity above average were identified, recovered from the first membrane, and propagated for further analysis of their recombinant gene product.” for “supra).”
CDR-L3 forms a connecting loop between two neighboring beta-strands such that the positions L91 and L92 are in close spatial proximity with L96. […] This time the stringency of selection was raised by lowering the concentration of the recombinant antigen - a mutant of NI-Fr2 devoid of Cys⁵⁷⁴ and Cys⁶⁷⁶—from 50 μg/ml to 30 μg/ml.

binding result	Binder
binds	B11
binds	B12
binds	B13
